Source: patent US20080009025A1, “PROTEIN KINASE REGULATION” (priority 1999, published 2008)
Where a SMILES comes first, the peptide text is derived from it.

Key:
PDK1 [1] = target: T1, PDK1 (Homo sapiens, UniProt O15530); assay: Glutathione-Sepharose pull-down of PDK1 with S6K1 or SGK1 from 293 cells; format: binding; set-up: Full length PDK1 (residues 1-556); made in house; host or cells: 293 cells; details: Flag-tagged S6K1 forms; wild type GST-PDK1
T1 sequence (O15530 1-556): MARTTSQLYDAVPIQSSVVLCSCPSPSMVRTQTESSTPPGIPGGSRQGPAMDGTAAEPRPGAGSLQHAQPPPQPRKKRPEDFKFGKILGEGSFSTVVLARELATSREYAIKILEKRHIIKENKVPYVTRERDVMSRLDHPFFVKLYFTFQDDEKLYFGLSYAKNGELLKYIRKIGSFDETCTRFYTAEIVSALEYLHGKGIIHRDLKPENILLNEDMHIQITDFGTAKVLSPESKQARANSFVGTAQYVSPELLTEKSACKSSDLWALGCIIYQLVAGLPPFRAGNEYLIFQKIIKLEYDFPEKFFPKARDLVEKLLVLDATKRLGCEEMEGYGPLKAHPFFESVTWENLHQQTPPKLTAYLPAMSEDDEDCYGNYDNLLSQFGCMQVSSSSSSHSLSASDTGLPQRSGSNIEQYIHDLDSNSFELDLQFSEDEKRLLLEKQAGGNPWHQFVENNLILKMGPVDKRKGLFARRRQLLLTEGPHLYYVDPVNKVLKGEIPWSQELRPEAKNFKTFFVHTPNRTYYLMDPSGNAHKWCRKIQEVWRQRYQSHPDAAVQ
Description: FIG. 21. Interaction of S6K1 and SGK1 with PDK1. 293 cells were transiently transfected with DNA constructs expressing GST, GST-PDK1 wt or PDK1 L155E together with constructs expressing either wild type or the indicated mutants or truncations of HA tagged S6K1 (A) or wild type GST-ΔN-SGK1 or 422D mutant. 36 h post transfection the cells were lysed and GST fusion protein was purified by affinity chromatography on glutathione-Sepharose beads. Aliquots were electrophoresed on a 10% SDS-polyacrylamide gel, stained with Coomassie Blue, or immunoblotted using an anti-FLAG antibody to detect FLAG-S6K1 and anti-Myc antibody to detect Myc-PDK1. To establish that the wild type and mutant proteins were expressed at similar levels, […] of total lysate was electrophoresed on a 10% SDS-polyacrylamide gel and immunoblotted using the indicated antibodies. Duplicates of each condition are shown. Similar results were obtained in two different experiments.
Binding of PDK1 to SGK1 and S6K1. For the data presented in FIG. 22, 293 cells were cotransfected with 10 μg of the wild type or mutant PDK1 plasmid and 10 μg of either the wild type or mutant S6K1 or SGK1. […] The gels were either stained with Coomassie blue, or analysed by immunoblotting with either anti-Flag or anti-Myc antibodies (described below).

PDK1 [2] = target: T2, PDK1 (Homo sapiens, UniProt O15530); assay: PDK1 activity towards synthetic peptide substrates T308tide or PDKtide; format: biochemical
T2 construct: Full length PDK1 (residues 1-556); made in house; host or cells: 293 cells
T2 sequence (O15530 52-556): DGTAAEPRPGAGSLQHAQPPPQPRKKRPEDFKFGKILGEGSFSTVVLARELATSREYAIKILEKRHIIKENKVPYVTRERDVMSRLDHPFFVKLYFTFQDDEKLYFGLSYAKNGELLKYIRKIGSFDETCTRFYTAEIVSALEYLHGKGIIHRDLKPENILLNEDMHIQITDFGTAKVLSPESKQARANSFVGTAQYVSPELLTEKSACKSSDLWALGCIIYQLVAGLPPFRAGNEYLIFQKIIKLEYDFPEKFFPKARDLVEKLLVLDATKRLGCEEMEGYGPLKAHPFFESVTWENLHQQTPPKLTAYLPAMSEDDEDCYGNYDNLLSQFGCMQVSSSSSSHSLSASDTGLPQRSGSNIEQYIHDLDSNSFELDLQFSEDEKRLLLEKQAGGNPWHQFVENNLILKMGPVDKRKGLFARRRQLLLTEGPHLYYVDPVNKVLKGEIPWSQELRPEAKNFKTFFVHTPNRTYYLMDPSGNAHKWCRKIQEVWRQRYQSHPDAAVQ
Description: FIG. 12. PDK1 is activated and stabilised through its interaction with PIFtide. (A) GST-PDK1 activity was measured in the presence of increasing concentrations of wild type (wt) PIFtide (closed circles) or a mutant D978A PIFtide (open circles) using the synthetic peptide substrate termed T308tide, as described in Material and Methods. The data was fitted to a hyperbola using the Kaleidagraph™ software. The connection needed to obtain 50% activation of PDK1 was […] for wt-PIFtide and 1.1 μM for D978A-PIFtide. The assay shown was performed in triplicate and there was less than 5% difference between each assay. Similar results were obtained in 2 further experiments (B)—The wild type GST-PDK1 (circles) or the L155D mutant of GST-PDK1 (squares) was incubated in the presence (closed symbols) or absence (open symbols) of […] PIFtife and then for 2 min at the indicated temperatures, rapidly brought to 0° C. (see Materials and Methods), and 2 min later assayed at 30° C. for 10 min using T308tide as substrate. The activity of PDK1 obtained by incubation at 30° C. was taken as 100%. The assay shown was performed in duplicate with similar results obtained in two separate experiments.
FIG. 14. […] (A) His-PDK1 was assayed for activity using as substrate the indicated concentration of either PDKtide (open triangles) or T308tide (open circles). (B) HIS-PDK1 was assayed for activity in the presence if PDKtide (25 μM closed triangles) or T308tide (100 μM closed circles) in the presence of the indicated concentrations of PIFtide. The assay was performed in triplicates with less than 5% difference between the triplicate samples. Similar results were obtained in 3 separate experiments.
PDK1's ability to phosphorylate Thr308 of PKBα was measured using a mutant of GST-PKBα in which Ser473 was mutated to Asp (GST-473D PKBα) in the presence of phospholipid vesicles containing sn-1-stearoyl-2-arachidonoyl-D-PtdIns (3, 4, 5)P3 [13]. The ability of wild type and mutant PDK1 to phosphorylate the synthetic peptides T308tide or PDKtide was carried out in 20 μl assays containing 50 mM Tris/HCl pH 7.5, 0.1% 2-mercaptoethanol 10 mM MgCl2, 100 μM [γ^32P]ATP (˜500 cpm/pmol) 0.5 μM microcystin-LR.PDK1 and the peptide concentrations indicated under Results. After incubation for 10 min at 30° C. the reaction was stopped by addition of 20 μl of 150 mM phosphoric acid. 35 μl of the resultant mixture was spotted into P81 phosphocellulose paper (2×2 cm) and the papers washed and analysed as described previously for assays of MAP kinase. […] Control assays were carried out in parallel in which either PDK1, or peptide substrate were omitted; these values were always less than 5% of the activity measured in the presence of these reagents. […]

PDK1 [3] = target: T1, PDK1; assay: Yeast two-hybrid interaction with PDK1; format: binding; set-up: expressed in transfected cells; host or cells: Saccharomyces cerevisiae strain Y190; details: wild type PDK1
PDK1 [4] = assay: Yeast two-hybrid interaction with PDK1; format: binding, human; details: PDK1 L155 mutants

## full length S6K1: Flag epitope tagged full length S6K1
PDK1 [1]
  interaction with GST-PDK1: failed to interact

## CC(C)C[C@H](NC(=O)[C@H](Cc1ccc(O)cc1)NC(=O)[C@H](CCC(=O)O)NC(=O)[C@@H]1CCCN1C(=O)[C@@H](NC(=O)CNC(=O)[C@H](CS)NC(=O)[C@H](Cc1ccccc1)NC(=O)[C@@H](NC(=O)[C@@H](N)CCCCN)[C@@H](C)O)[C@@H](C)O)C(=O)N[C@@H](C)C(=O)N1CCC[C@H]1C(=O)N[C@@H](CCC(=O)O)C(=O)N[C@H](C(=O)N[C@@H](CCCNC(=N)N)C(=O)N[C@@H](CCCNC(=N)N)C(=O)O)C(C)C [T308tide, KTFCGTPEYLAPEVRR, reference compound] (H-KTFCGTPEYLAPEVRR-OH)
PDK1 [2]; read-out: Km of PDK1 for peptide substrate
  Km: > 10 mM

## full length S6K1[T412E]: Flag epitope tagged full length S6K1 with Thr412 to Glu
PDK1 [1]
  interaction with GST-PDK1: failed to interact

## PKACT: C-terminal fragment of PKA composed of residues 129-350
PDK1 [3]
  two-hybrid interaction with full length PDK1: positive interaction
PDK1 [4]
  two-hybrid interaction with L155S, L155D or L155E mutants of PDK1: greatly reduced

## KTFCGTPEYLAPEVRREPRILSEEEQEMFRDFDYLADWC [PDKtide, 39 amino acid polypeptide composed of T308tide fused to PIFtide]
PDK1 [2]; assayed at 100 μM
  rate of phosphorylation by PDK1 relative to T308tide: over 100 fold
